Paper PMC7958410, “Hepatitis B virus X protein promotes vimentin expression via LIM and SH3 domain protein 1 to facilitate epithelial-mesenchymal transition and hepatocarcinogenesis” (Cell Communication and Signaling : CCS, 2021)

Biological target: T1, His-vimentin (UniProt P08670 1-466)
T1 construct: vimentin; also called vimentin with His Tag; source: E. coli DH5α, purified by His-beads
Assay: pull-down; GST fusion bound to glutathione-Sepharose beads incubated with purified His-tagged protein at 4 °C; washed 3 times with binding buffer; western blot
Conditions: both partners purified

T1 sequence (P08670 whole entry): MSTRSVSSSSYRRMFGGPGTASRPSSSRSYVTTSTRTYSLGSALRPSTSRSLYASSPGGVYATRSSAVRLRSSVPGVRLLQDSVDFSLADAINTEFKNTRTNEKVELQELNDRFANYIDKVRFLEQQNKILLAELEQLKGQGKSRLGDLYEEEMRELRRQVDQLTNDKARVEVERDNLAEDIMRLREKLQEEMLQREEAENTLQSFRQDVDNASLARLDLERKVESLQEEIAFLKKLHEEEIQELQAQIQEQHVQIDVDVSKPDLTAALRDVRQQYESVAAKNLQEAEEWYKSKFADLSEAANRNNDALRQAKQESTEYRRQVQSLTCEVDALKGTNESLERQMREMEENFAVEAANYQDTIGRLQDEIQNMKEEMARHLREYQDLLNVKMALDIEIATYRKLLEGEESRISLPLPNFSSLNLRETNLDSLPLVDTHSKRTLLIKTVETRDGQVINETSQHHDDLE

B1: GST-LASP1 (natural protein, UniProt Q14847 1-261, looked up)
chain: MNPNCARCGKIVYPTEKVNCLDKFWHKACFHCETCKMTLNMKNYKGYEKKPYCNAHYPKQSFTMVADTPENLRLKQQSELQSQVRYKEEFEKNKGKGFSVVADTPELQRIKKTQDQISNIKYHEEFEKSRMGPSGGEGMEPERRDSQDGSSYRRPLEQQQPHHIPTSAPVYQQPQQQPVAQSYGGYKEPAAPVSIQRSAPGGGGKRYRAVYDYSAADEDEVSFQDGDTIVNVQQIDDGWMYGTVERTGDTGMLPANYVEAI
notes: LIM and SH3 domain protein 1 (LASP1); also called LASP1 with GST Tag
- binding result: binds
